By Kd is commonly meant the free concentration of one partner at which half of the binding sites on the other are occupied at equilibrium, for simple one-to-one binding.

Among the data in patent US20130071379A1 are Kd values, retold here.

Where a chain is given by its changes, count along the chain named.

B1: 1B20 variant C8 (antibody, part only; not given: light chain, V domains shown, part only)
VH: QVQLVQSGAEVKKPGESLKISCKGSGYSFTNYYIAWVRQMPGKGLEWMGMIYPGDSYTSYSHRFQGQVTISADKSISTAYLQWSSLKASDTAMYYCARDHWYRPYFDIWGQGTLVTVSS
B2: 1B20 variant A6 (antibody, part only; not given: light chain, V domains shown, part only)
VH: QVQLVQSGAEVKKPGESLKISCKGSGYSFTNYYISWVRQMPGKGLEWMGLIYPGDSYTRYNPSFQGQVTISADKSISTAYLQWSSLKASDTAMYYCARDYYSRPFSDIWGQGTLVTVSS
B3: 1B20 variant E3 (antibody, part only; not given: light chain, V domains shown, part only)
VH: B1 VH with N31D, A35S, H62P, H100Y, Y105F, F106S
B4: 1B20 variant D3 (antibody, part only; not given: light chain, V domains shown, part only)
VH: B2 VH with N31D, S35T, L50M, N61S, S63K, Y101W, R103K, S106F, I108V
B5: 1B20 variant G5 (antibody, part only; not given: light chain, V domains shown, part only)
VH: B2 VH with N31D, N61S, S63N, Y100H, Y101G, S102Y, F105Y
B6: 1B20 variant B4 (antibody, part only; not given: light chain, probably the common parent VL, V domains shown, part only)
VH: B2 VH with N31D, R59H, S63N, Y101W, R103K, F105L, S106F, I108V
B7: 1B20 variant B6 (antibody, part only; not given: light chain, probably the common parent VL, V domains shown, part only)
VH: B2 VH with N31D, L50I, R59N, Y101W, S102Y
B8: 1B20 variant C3 (antibody, part only; not given: light chain, probably the common parent VL, V domains shown, part only)
VH: B2 VH with Q3K, S35A, L50I, R59H, S63K, Y100H, Y101G, S102Y, R103K
B9: 1B20 variant G7 (antibody, part only; not given: light chain, probably the common parent VL, V domains shown, part only)
VH: B1 VH with N31D, A35S, M50W, S59H, H62P, R63S, Y102S, R103K, I108V
B10: 1B20 variant A5 (antibody, part only; not given: light chain, probably the common parent VL, V domains shown, part only)
VH: B2 VH with N31D, L50W, R59H, S63M, Y100R, Y101W, F105Y, S106F
B11: 1B20 variant G8 (antibody, part only; not given: light chain, probably the common parent VL, V domains shown, part only)
VH: B2 VH with N31D, R59H, S63N, Y100H, Y101W, R103K, F105Y, S106F, I108V
B12: 1B20 variant A9 (antibody, part only; not given: light chain, probably the common parent VL, V domains shown, part only)
VH: B1 VH with A35S, S59R, H62P, R63K, F106S
B13: 1B20 variant F8 (antibody, part only; not given: light chain, probably the common parent VL, V domains shown, part only)
VH: B2 VH with L50M, R59N, P62Q, S63K, Y101W, F105Y
B14: 1B20 variant E2 (antibody, part only; not given: light chain, probably the common parent VL, V domains shown, part only)
VH: B2 VH with P62R, S63K, F105L, I108V
B15: 1B20 variant B2 (antibody, part only; not given: light chain, probably the common parent VL, V domains shown, part only)
VH: B2 VH with R59N, S63N, Y100H, R103T, S106F, I108V
B16: 1B20 variant B3 (antibody, part only; not given: light chain, probably the common parent VL, V domains shown, part only)
VH: B1 VH with A35S, S61N, H62P, R63K, Y102S, R103K
B17: 1B20 variant B5 (antibody, part only; not given: light chain, probably the common parent VL, V domains shown, part only)
VH: B2 VH with N31D, L50M, N61S, W83S, Y101W, S102Y, R103K, I108V
B18: 1B20 variant F5 (antibody, part only; not given: light chain, probably the common parent VL, V domains shown, part only)
VH: B1 VH with N31D, A35T, S59N, S61R, R63N, H100Y, Y102S
B19: 1B20 variant F1 (antibody, part only; not given: light chain, probably the common parent VL, V domains shown, part only)
VH: B2 VH with N31D, R59N, N61S, S63K, Y100H, Y101W, R103K, F105L, I108V
B20: 1B20 variant G6 (antibody, part only; not given: light chain, probably the common parent VL, V domains shown, part only)
VH: B2 VH with N31D, S35N, L50M, R59N, S63K, M93I, Y100H, Y101W, I108V
B21: 1B20 variant C7 (antibody, part only; not given: light chain, probably the common parent VL, V domains shown, part only)
VH: B1 VH with N31D, A35S, M50W, S59H, R63N, Y102S, Y105F, F106S, I108V
B22: 1B20 variant E8 (antibody, part only; not given: light chain, probably the common parent VL, V domains shown, part only)
VH: B1 VH with A35T, S59R, H62P, R63K, Y102S, R103K, Y105L, F106S, I108V
B23: 1B20 variant A1 (antibody, part only; not given: light chain, probably the common parent VL, V domains shown, part only)
VH: B2 VH with N31D, Y101W, R103K, F105L
B24: 1B20 variant F4 (antibody, part only; not given: light chain, probably the common parent VL, V domains shown, part only)
VH: B2 VH with N31D, N61S, R103K, F105L, S106F, I108V
B25: 1B20 variant D5 (antibody, part only; not given: light chain, probably the common parent VL, V domains shown, part only)
VH: B1 VH with A35T, M50L, S59R, H62P, Y102S, F106S, I108V
B26: 1B20 variant H1 (antibody, part only; not given: light chain, probably the common parent VL, V domains shown, part only)
VH: B2 VH with N31D, S35A, L50I, S63R, Y101W, R103K, F105L
B27: 1B20 variant B1 (antibody, part only; not given: light chain, probably the common parent VL, V domains shown, part only)
VH: B1 VH with N31D, A35S, M50I, S59H, H62P, R63N, H100Y, R103T, Y105F, I108V
B28: 1B20 variant G4 (antibody, part only; not given: light chain, probably the common parent VL, V domains shown, part only)
VH: B1 VH with A35S, M50L, S59R, H62P, W101G, R103K, F106S
B29: 1B20 variant E1 (antibody, part only; not given: light chain, probably the common parent VL, V domains shown, part only)
VH: B1 VH with A35S, S61N, H62P, R63N, Y102S, R103K, Y105F
B30: 1B20 variant F2 (antibody, part only; not given: light chain, V domains shown, part only)
VH: B2 VH with S35A, L50V, S63K, Y101W, F105Y, S106F
B31: 1B20 variant B9 (antibody, part only; not given: light chain, V domains shown, part only)
VH: B2 VH with L50I, T58I, R59H, P62Q, S63N
B32: 1B20 variant A8 (antibody, part only; not given: light chain, probably the common parent VL, V domains shown, part only)
VH: B1 VH with A35S, S59H, H62P, R63N, H100Y, Y102S, R103K, I108V
B33: 1B20 variant F7 (antibody, part only; not given: light chain, V domains shown, part only)
VH: B2 VH with S35A, L50I, R59H, S63K, Y100H, Y101W, I108V
B34: 1B20 variant B8 (antibody, part only; not given: light chain, V domains shown, part only)
VH: B1 VH with A35S, S59H, H62P, R63N, H100Y, Y102S, R103K, I108V
B35: 1B20 variant F6 (antibody, part only; not given: light chain, probably the common parent VL, V domains shown, part only)
VH: B2 VH with R59H, Y100H, Y101W, S102Y, R103K
B36: 1B20 variant C2 (antibody, part only; not given: light chain, probably the common parent VL, V domains shown, part only)
VH: B1 VH with N31D, M50L, S61N, H62P, H100Y, Y102S, R103T
B37: 1B20 variant E4 (antibody, part only; not given: light chain, probably the common parent VL, V domains shown, part only)
VH: B2 VH with L50W, R59S, P62Q, S63K, Y101W, R103K, F105Y, I108V
B38: 1B20 variant E5 (antibody, part only; not given: light chain, probably the common parent VL, V domains shown, part only)
VH: B2 VH with N31D, L50W, R59H, S63N, Y100R, Y101W, R103T, F105Y, S106F, I108V
B39: 1B20 variant H7 (antibody, part only; not given: light chain, probably the common parent VL, V domains shown, part only)
VH: B1 VH with N31D, A35S, L45P, S59R, H62Q, R63K, M93I, Y102S, Y105L, F106S
B40: 1B20 variant G3 (antibody, part only; not given: light chain, probably the common parent VL, V domains shown, part only)
VH: B2 VH with S63K, F105Y, I108V
B41: 1B20 variant A7 (antibody, part only; not given: light chain, V domains shown, part only)
VH: B2 VH with L50I, S63N, Y101W, R103K, F105L, I108V
B42: 1B20 variant D4 (antibody, part only; not given: light chain, probably the common parent VL, V domains shown, part only)
VH: B2 VH with N31D, S35A, L50I, S63K, Y101W, I108V
B43: 1B20 variant H4 (antibody, part only; not given: light chain, probably the common parent VL, V domains shown, part only)
VH: B2 VH with S35T, K43R, L50I, S63K, Y100H, Y101W, R103K, I108V
B44: 1B20 variant A3 (antibody, part only; not given: light chain, V domains shown, part only)
VH: B1 VH with N31D, A35S, S59R, H62P, R63N, Y105L, F106S
B45: 1B20 variant H5 (antibody, part only; not given: light chain, probably the common parent VL, V domains shown, part only)
VH: B1 VH with N31D, A35S, M50I, H62P, H100Y, Y102S, Y105L, I108V
B46: 1B20 variant C6 (antibody, part only; not given: light chain, V domains shown, part only)
VH: B1 VH with A35T, S59H, S61N, H62P, R63S, R103K, Y105L
B47: 1B20 variant C1 (antibody, part only; not given: light chain, probably the common parent VL, V domains shown, part only)
VH: B1 VH with A35S, S59R, H62P, R63K, F106S
B48: 1B20 variant D8 (antibody, part only; not given: light chain, V domains shown, part only)
VH: B1 VH with N31D, A35S, S59H, H62Q, R63S, Y105L
B49: 1B20 variant H8 (antibody, part only; not given: light chain, probably the common parent VL, V domains shown, part only)
VH: B1 VH with N31D, A35S, S59H, H62Q, R63N, Y102S, Y105F, I108V
B50: 1B20 variant G2 (antibody, part only; not given: light chain, probably the common parent VL, V domains shown, part only)
VH: QVKLVQSGAEVKKPGESLKISCKGSGYSFTDYYISWVRQMPGKGLEWMGIIYPGDSYTHYNPKFQGQVTISADKSISTAYLQWSSLKASDTAMYYCARDRWSKPLFDVWGQGTLVTVSS
B51: 1B20 variant A4 (antibody, part only; not given: light chain, probably the common parent VL, V domains shown, part only)
VH: B50 VH with K3Q, I50S, N61S, P62H, M93I, R100H, K103R, L105F
B52: 1B20 variant H3 (antibody, part only; not given: light chain, probably the common parent VL, V domains shown, part only)
VH: B1 VH with A35T, S59H, H62Q, M93I, Y102S, Y105L, I108V

The target in the test is PCSK9. The test is described as follows: Biacore SPR. (In general: In SPR one partner is held on a chip, and binding of the other changes the refractive index at the surface.)
Molecule B1 showed a Kd of 3.73 nM. Molecule B2 showed a Kd of 1.39 nM. Under B3 stands 2.62 nM; under B4, 2.68 nM. Under B5 stands 1.65 nM; under B6, 2.01 nM; under B7, 2.88 nM. As for B8, the figure is 4.5 nM.

For the molecule B9, the Kd amounted to 2.05 nM. As for B10, the figure is 6.81 nM; as for B11, 1.51 nM.

B12 registered an equilibrium dissociation constant (Kd) of 1.95 nM. Under B13 stands 1.35 nM. B14 registered a Kd of 2.62 nM. Under B15 stands 2.21 nM; under B16, 1.21 nM; under B17, 1.36 nM. As for B18, the figure is 2.41 nM; as for B19, 3.47 nM.

For the molecule B20, the Kd was determined as 2.2 nM.

In the case of B21, the Kd was 2.53 nM. B22 displayed a Kd of 1.62 nM.

Consider B23, for which the Kd is 2.15 nM. B24 came in with a Kd of 3.14 nM. For the molecule B25, the Kd amounted to 1.6 nM. Under B26 stands 2.01 nM; under B27, 3.73 nM; under B28, 2.9 nM. Under B29 stands 1.36 nM; under B30, 1.01 nM.

As to B31, the Kd was determined as 3.81 nM. B32 had a Kd of 1.19 nM.

B33: the Kd stood at 1.26 nM. As for B34, the figure is 4.47 nM; as for B35, 2.68 nM. In turn, B36 registered a Kd of 2.25 nM.

B37 yielded a Kd of 2.38 nM. As for B38, the figure is 4.22 nM. For the molecule B39, the Kd stood at 4.9 nM.

B40: the Kd amounted to 1.53 nM. Under B41 stands 1.28 nM. B42 had a Kd of 1.91 nM.

As to B43, the Kd is 1.52 nM. Under B44 stands 7.93 nM. As to B45, the Kd turned out to be 2.41 nM. The molecule B46 yielded a Kd of 2.1 nM. In turn, B47 yielded a Kd of 1.65 nM. The molecule B48 gave a Kd of 3.21 nM. Consider B49, for which the Kd is 1.35 nM. The molecule B50 came in with an equilibrium dissociation constant (Kd) of 2.11 nM. Molecule B51 showed an equilibrium dissociation constant (Kd) of 2.15 nM. B52 came in with a dissociation constant (Kd) of 1.89 nM.
